Source: patent publication US5831051, “Receptor for peptide hormones involved in energy homeostasis, and method and compositions for use thereof” (The Rockefeller University, dated 1998)
Where no end group is shown, it is not given here.

Key:
[1] = target: T1, recombinant human PACAP/VIP R-2 receptor (human); assay: competitive displacement of 125I-VIP on intact CHL cells expressing the receptor
T1 chain: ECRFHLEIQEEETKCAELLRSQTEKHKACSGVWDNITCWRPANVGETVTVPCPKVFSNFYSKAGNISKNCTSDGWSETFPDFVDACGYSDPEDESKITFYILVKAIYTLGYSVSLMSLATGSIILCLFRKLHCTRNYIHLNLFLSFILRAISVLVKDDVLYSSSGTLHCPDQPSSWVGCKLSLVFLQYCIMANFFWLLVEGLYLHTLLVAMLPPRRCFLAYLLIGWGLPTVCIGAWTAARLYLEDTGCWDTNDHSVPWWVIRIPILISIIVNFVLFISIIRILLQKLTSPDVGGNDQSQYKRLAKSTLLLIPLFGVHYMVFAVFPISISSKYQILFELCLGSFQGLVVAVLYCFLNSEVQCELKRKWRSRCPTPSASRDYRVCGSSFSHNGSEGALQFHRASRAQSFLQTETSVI
Procedure for binding result: (§1) Each peptide concentration prepared in Hank's balanced salt solution containing 20 mM HEPES, pH 7.4, 0.5% BSA and 0.1 mM phenylmethylsulfonyl-fluoride (PMSF) was added in triplicates to intact cells. Following the incubation, the cells were washed two times with ice-cold PBS, lysed with 1N NaOH, and radioactivity measured in gamma counter.

[2] = target: T1, recombinant human PACAP/VIP R-2 receptor; assay: competitive displacement of 125I-VIP (44 pM) on intact CHL cells expressing the receptor
Procedure: as §1
(§2) To further confirm the identity of the receptor, the cDNA was expressed in a chinese hamster lung (CHL) cell line.

[3] = target: T1, recombinant human PACAP/VIP R-2 receptor; assay: competitive displacement of 125I-PACAP-27 (44 pM) on intact CHL cells expressing the receptor
Procedure: as §1

[4] = target: T1, recombinant human PACAP/VIP R-2 receptor; assay: competitive displacement of 125I-VIP on intact CHL cells expressing the receptor; complete displacement not obtainable
Procedure: as §1

[5] = target: T1, recombinant human PACAP/VIP R-2 receptor; assay: competitive displacement of 125I-VIP (44 pM) on intact CHL cells expressing the receptor; complete displacement not obtainable
Procedure: as §1, §2

secretin (ligand)
concentration at which 125I-VIP binding was displaced [1]: 3.8 µM

HAEGTFTSDVSSYLEGQAAKEFIAWLVKGR (ligand) [glucagon-like peptide-I (GLP-1)]
binding result [1]: no binding

HSDGIFTDSYSRYRKQMAVKKYLAAVLGKRYKQRVKNK (ligand, ends and bridges not checked) [PACAP-38 (pituitary adenylate cyclase activating polypeptide, 38-amino acid peptide)]
IC50 [2]: 1.8 nM
IC50 [3]: 4.1 nM

HSDGIFTDSYSRYRKQMAVKKYLAAVL (ligand, ends and bridges not checked) [PACAP-27 (pituitary adenylate cyclase activating polypeptide, 27-amino acid peptide)]
IC50 [4]: ~37 nM

HSDAVFTDNYTRLRKQMAVKKYLNSILN (ligand) [vasoactive intestinal polypeptide (VIP)]
IC50 [3]: ~9 nM
IC50 [5]: ~5.8 nM

HADGSFSDEMNTILDNLAARDFINWLIQTKITD (ligand) [glucagon-like peptide-II (GLP-II)]
binding result [1]: no binding
